The target of the assay is Rab7-RILP complex (human, UniProt P51149 2-195; Q96NA2 242-320). Description: ITC.

As a reminder, the Kd is the free concentration of one partner at which half of the binding sites on the other are occupied at equilibrium, for simple one-to-one binding. Low readings indicate higher affinity, high ones lower affinity.

Sequence of Rab7-RILP complex (P51149 2-195 Q67L, chain 1 of 2): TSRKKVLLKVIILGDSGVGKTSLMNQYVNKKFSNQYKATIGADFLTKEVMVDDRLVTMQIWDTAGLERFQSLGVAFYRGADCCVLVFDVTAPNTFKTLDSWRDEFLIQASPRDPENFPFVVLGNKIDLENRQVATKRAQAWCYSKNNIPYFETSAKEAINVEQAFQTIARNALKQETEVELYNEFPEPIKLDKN
Sequence of Rab7-RILP complex (Q96NA2 242-320, chain 2 of 2): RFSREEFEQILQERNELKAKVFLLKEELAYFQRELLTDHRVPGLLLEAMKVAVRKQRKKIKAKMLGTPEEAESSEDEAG

B1: ORP1 ANK (5-233) (protein)
chain: AEQQLLHHARNGNAEEVRQLLETMARNEVIADINCKGRSKSNLGWTPLHLACYFGHRQVVQDLLKAGAEVNVLNDMGDTPLHRAAFTGRKELVMLLLEYNADTTIVNGSGQTAKEVTHAEEIRSMLEAVERTQQRKLEELLLAAAREGKTTELTALLNRPNPPDVNCSDQLGNTPLHCAAYRAHKQCALKLLRSGADPNLKNKNDQKPLDLAQGAEMKHILVGNKVIYK
With B1, the Kd came out at 4.13 µM.

These data come from paper PMC6363164 (2019).
